{
  "source": "paper PMC2659343",
  "binders": {"B1": {"name": "MHMN (mutant heptamer, mutant nonamer) (dsDNA)", "DNA 1": "GATATGGCTCGTCTTAGAGAAGCATATAGACCTTAAGGCTCTGATCCAATCGAGCGGAG", "DNA 2": "CTCCGCTCGATTGGATCAGAGCCTTAAGGTCTATATGCTTCTCTAAGACGAGCCATATC"}, "B2": {"name": "Oregon Green MHMN (dsDNA)", "DNA 1": "B1 DNA 1", "DNA 2": "B1 DNA 2"}, "B3": {"name": "WT 12-RSS (dsDNA)", "DNA 1": "GATATGGCTCGTCTTACACAGTGATATAGACCTTAACAAAAACCTCCAATCGAGCGGAG", "DNA 2": "CTCCGCTCGATTGGAGGTTTTTGTTAAGGTCTATATCACTGTGTAAGACGAGCCATATC"}, "B4": {"name": "Oregon Green WT 12-RSS (dsDNA)", "DNA 1": "B3 DNA 1", "DNA 2": "B3 DNA 2"}, "B5": {"name": "unlabeled WT 12-RSS competitor (dsDNA)", "DNA 1": "B3 DNA 1", "DNA 2": "B3 DNA 2"}},
  "key": {"[1]": {"molecular_target": "T1, MCR1 (MBP-core RAG1);GST-core RAG2 (mouse?;mouse?, UniProt P15919;P21784 384-1008;1-387, |)", "T1 sequence 1": "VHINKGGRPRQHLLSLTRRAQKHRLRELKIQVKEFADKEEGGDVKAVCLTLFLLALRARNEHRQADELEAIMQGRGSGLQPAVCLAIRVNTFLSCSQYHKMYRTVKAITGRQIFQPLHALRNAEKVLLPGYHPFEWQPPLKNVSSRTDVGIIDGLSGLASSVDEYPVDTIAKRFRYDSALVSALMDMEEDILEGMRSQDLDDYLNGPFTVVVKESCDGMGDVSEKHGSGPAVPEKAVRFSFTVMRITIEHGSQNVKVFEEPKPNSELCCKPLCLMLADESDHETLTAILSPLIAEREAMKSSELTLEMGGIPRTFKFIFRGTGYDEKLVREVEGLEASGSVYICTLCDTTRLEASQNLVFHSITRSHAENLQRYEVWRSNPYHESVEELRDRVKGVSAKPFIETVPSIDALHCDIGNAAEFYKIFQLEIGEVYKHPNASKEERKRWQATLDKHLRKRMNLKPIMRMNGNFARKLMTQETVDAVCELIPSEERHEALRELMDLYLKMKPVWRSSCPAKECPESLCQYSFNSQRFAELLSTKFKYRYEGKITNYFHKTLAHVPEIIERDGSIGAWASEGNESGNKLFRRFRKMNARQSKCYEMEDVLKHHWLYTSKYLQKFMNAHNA", "T1 sequence 2": "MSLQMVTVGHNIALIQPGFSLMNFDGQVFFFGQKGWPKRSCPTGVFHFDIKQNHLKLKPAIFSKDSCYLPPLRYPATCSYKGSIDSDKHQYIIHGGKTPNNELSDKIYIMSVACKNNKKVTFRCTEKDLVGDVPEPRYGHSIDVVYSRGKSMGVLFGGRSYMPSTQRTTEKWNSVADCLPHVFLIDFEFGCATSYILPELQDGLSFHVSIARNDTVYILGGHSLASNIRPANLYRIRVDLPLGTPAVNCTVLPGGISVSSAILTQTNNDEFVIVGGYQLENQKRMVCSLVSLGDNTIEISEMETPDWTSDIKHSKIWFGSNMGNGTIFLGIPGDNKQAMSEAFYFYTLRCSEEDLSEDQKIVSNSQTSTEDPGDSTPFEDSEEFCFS", "assay": "EMSA"}, "[2]": {"molecular_target": "T2, MCR1 (MBP-core RAG1) (UniProt P15919 384-1008)", "T2 sequence": "T1 sequence 1", "assay": "EMSA"}, "[3]": {"molecular_target": "T3, MCR1 from 293T (co-expressed with GST-core RAG2);GST-core RAG2 (mouse?;mouse?, UniProt P15919;P21784 384-1008;1-387, |)", "T3 sequence 1": "T1 sequence 1", "T3 sequence 2": "T1 sequence 2", "assay": "EMSA"}, "[4]": {"molecular_target": "T2, MCR1 (MBP-core RAG1)", "assay": "fluorescence anisotropy"}, "[5]": {"molecular_target": "T1, MCR1 (MBP-core RAG1);GST-core RAG2", "assay": "EMSA", "remark": "listed apart in the source"}, "[6]": {"molecular_target": "T2, MCR1 (MBP-core RAG1)", "assay": "EMSA", "remark": "listed apart in the source"}, "[7]": {"molecular_target": "T3, MCR1 from 293T (co-expressed with …)", "assay": "EMSA", "remark": "listed apart in the source"}, "[8]": {"molecular_target": "T3, MCR1 from 293T (co-expressed with …)", "assay": "EMSA", "remark": "listed apart in the source"}, "[9]": {"molecular_target": "T2, MCR1 (MBP-core RAG1)", "assay": "fluorescence anisotropy", "remark": "listed apart in the source"}, "[10]": {"molecular_target": "T2, MCR1 (MBP-core RAG1)", "assay": "fluorescence anisotropy", "remark": "listed apart in the source"}, "[11]": {"molecular_target": "T2, MCR1 (MBP-core RAG1)", "assay": "competition"}},
  "note": "Like-named read-outs stand apart in the source and are kept apart here.",
  "data": [
    {"binder": "B1", "values": [
      {"measurement": "binding result", "setting": "[1]", "result": "no binding"},
      {"measurement": "Kd", "setting": "[2]", "result": "123 ± 7", "unit": "nM"},
      {"measurement": "binding result", "setting": "[3]", "result": "no binding"}
    ]},
    {"binder": "B2", "values": [
      {"measurement": "Kd", "setting": "[4]", "result": "28 ± 8", "unit": "nM"}
    ]},
    {"binder": "B3", "values": [
      {"measurement": "Kd", "setting": "[5]", "result": "87 ± 10", "unit": "nM"},
      {"measurement": "Kd", "setting": "[6]", "result": "114 ± 5", "unit": "nM"},
      {"measurement": "Kd", "setting": "[7]", "result": "25 ± 5", "unit": "nM"},
      {"measurement": "Kd", "setting": "[8]", "result": "32 ± 5", "unit": "nM"}
    ]},
    {"binder": "B4", "values": [
      {"measurement": "Kd", "setting": "[9]", "result": "27 ± 9", "unit": "nM"},
      {"measurement": "Kd", "setting": "[10]", "result": 123, "unit": "nM"}
    ]},
    {"binder": "B5", "values": [
      {"measurement": "IC50", "setting": "[11]", "result": 150, "unit": "nM"}
    ]}
  ]
}
